Measured values reported in US20180282410A1 (Hoffmann-La Roche, published 2018).

Target: T1, murine (mu) Robo 4 ECD-PreS-Avi-His (mouse)
T1 construct: also called recombinant murine Robo 4; murine Robo 4
T1 chain: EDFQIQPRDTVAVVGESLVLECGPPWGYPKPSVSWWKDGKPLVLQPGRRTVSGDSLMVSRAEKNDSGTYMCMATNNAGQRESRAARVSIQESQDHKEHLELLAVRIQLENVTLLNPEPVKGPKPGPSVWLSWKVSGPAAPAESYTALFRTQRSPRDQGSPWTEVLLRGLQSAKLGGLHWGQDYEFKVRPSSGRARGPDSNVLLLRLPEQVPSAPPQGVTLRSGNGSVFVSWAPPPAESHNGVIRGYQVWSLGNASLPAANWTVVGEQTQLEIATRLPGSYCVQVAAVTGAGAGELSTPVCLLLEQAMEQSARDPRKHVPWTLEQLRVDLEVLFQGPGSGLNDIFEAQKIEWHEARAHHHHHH
Assay: SPR Biacore T100, IgG captured via anti-human Fab, antigen as analyte
Experimental: All surface plasmon resonance (SPR) experiments are performed on a Biacore T100 at 25° C. with HBS-EP as running buffer (0.01 M HEPES pH 7.4, 0.15 M NaCl, 3 mM EDTA, 0.005% Surfactant P20 (Biacore)).
Anti Robo 4 antibodies were captured for 60 s at 50 nM. Recombinant human, murine and cynomolgus Robo 4 were passed at a concentration range from 0.46-1000 nM with a flow of 30 μl/min through the flow cells over 90 s. The dissociation was monitored for 120 s. Bulk refractive index differences were corrected for by subtracting the response obtained on a reference flow cell. Here, the antigens were flown over a surface with immobilized anti-human Fab specific antibody on which HBS-EP has been injected rather than the antibodies.
Kinetic constants were derived using the Biacore T100 Evaluation Software (vAA, Biacore), to fit rate equations for 1:1 Langmuir binding by numerical integration.

B1: 7G2 anti-Robo 4 IgG (antibody, V domains shown)
VH: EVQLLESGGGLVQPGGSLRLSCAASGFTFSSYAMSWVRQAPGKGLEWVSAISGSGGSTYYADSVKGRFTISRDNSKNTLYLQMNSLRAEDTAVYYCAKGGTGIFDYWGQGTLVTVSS
VL: EIVLTQSPGTLSLSPGERATLSCRASQSVSSSYLAWYQQKPGQAPRLLIYGASSRATGIPDRFSGSGSGTDFTLTISRLEPEDFAVYYCQQGQLPPRTFGQGTKVEIK
notes: also called 7G2 IgG
Question: Does B1 bind?
Answer: no binding (tested: antigen 0.46-1000 nM)
